# According to patent publication US20120315277A1, “Compositions and Methods for the Therapy and Diagnosis of Influenza” (priority 2011, published 2012):
# Substitutions are numbered along the chain they refer to.
# T1: M2 protein of influenza A/Fort Worth/1/50 (H1N1), expressed on 293 cells (influenza A virus A/Fort Worth/1/50 …)
# T1 chain: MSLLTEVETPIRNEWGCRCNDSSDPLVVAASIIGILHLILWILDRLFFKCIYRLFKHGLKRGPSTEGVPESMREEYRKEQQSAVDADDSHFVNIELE
# B1: 21B15 (antibody, V domains shown)
# VH: QVQLQESGPGLVKPSETLSLTCTVSGSSISNYYWSWIRQSPGKGLEWIGFIYYGGNTKYNPSLKSRVTISQDTSKSQVSLTMSSVTAAESAVYFCARASCSGGYCILDYWGQGTLVTVS
# VL: DIQVTQSPSSLSASVGDRVTITCRASQNIYKYLNWYQQRPGKAPKGLISAASGLQSGVPSRFSGSGSGTDFTLTITSLQPEDFATYYCQQSYSPPLTFGGGTRVDIK
# B2: TCN-031 Fab (Fab, V domains shown)
# VH: EVQLVESGGGLVQPGGSLRISCAASGFTVSSNYMSWVRQAPGKGLEWVSVIYSGGSTYYADSVKGRFSFSRDNSKNTVFLQMNSLRAEDTAVYYCARCLSRMRGYGLDVWGQGTTVTVS
# VL: DIQMTQSPSSLSASVGDRVTITCRTSQSISSYLNWYQQKPGKAPKLLIYAASSLQSGVPSRFSGSGSGTDFTLTISGLQPEDFATYYCQQSYSMPAFGQGTKLEIK
# B3: TCN-032 Fab (Fab, V domains shown)
# VH: B1 VH
# VL: B1 VL with V4M, D105E
# B4: 3136_G05 (antibody, V domains shown)
# VH: QVQLQESGPGLVKPSETLSLTCSVSGGSISSDFWSWIRQPPGKGLEWIGYVYNRGSTKYSPSLKSRVTISADMSKNQFSLNMSSVTAADTAVYYCAKNGRSSTSWGIDVWGKGTTVTVSS
# VL: DIQMTQSPSSLSASVGDRLTITCRASQSISTYLHWYQQKPGKAPKLLIYAASSLQSGVPSRFSGSRSGTDFTLTISSLQPDDFATYYCQQSYSPPLTFGPGTKVDMK
# B5: 3252_C13 (antibody, V domains shown)
# VH: QVQLQESGPGLVKPSETLSLTCTVSGASISSDYWSWIRLPPGKGLEWIGYIYNRGSTKYTPSLKSRVTISLDTAENQFSLRLRSVTAADTAIYYCARHVGGHTYGIDYWGQGTLVTVSS
# VL: DIQMTQSPSSLSASVGDRVTITCRASQSISNYLNWYQHKPGEAPKLLNYAASSLQSGVPSRFSASGSGTDFTLTISSLQPEDFATYYCQQSYNTPITFGQGTRLEIK
# B6: 3255_J06 (antibody, V domains shown)
# VH: B5 VH with I92V
# VL: B5 VL with T74S, S77G, Q100P
# B7: 3420_I23 (antibody, V domains shown)
# VH: QVQLQESGPGLVKPSETLSVTCKVSGDSISSYSWSWIRQPPGKGLEWVGYLYYSGSTKYNPSLKSRTTISVDTSTNQLSLKLSFVTAADTAVYFCARTGSESTTGYGMDVWGQGTTVTVSS
# VL: B5 VL with N31T, H38Q, E42K, N48I, Q55H, A64G, T72A, N93S, T94P
# B8: 3139_P23 (antibody, V domains shown)
# VH: QVQLQESGPRLVKPSESLSLTCTVSGGSISNSFWGWIRQPPGEGLEWIGYVYNSGNTKYNPSLKSRVTISRDTSKSQLYMKLRSVTAADTAVYYCARHDDASHGYSISWGHGTLVTVSS
# VL: DIQMTQSPSSLSASVGDRVTITCRASQTISTYLNWYQQKSGKAPKLLIYAASGLQSGVPSRFSGSGSGTDFTLTISSLQPEDFATYFCQQSYNTPLTFGQGTKVEIK
# B9: 3248_P18 (antibody, V domains shown)
# VH: QVQLQESGPGLVKPSETLSLTCTVSGGSISAYHWSWIRQPPGKGLEWIGHIFDSGSTYYNPSLKSRVTISLDASKNQLSLRLTSVTASDTAIYYCARPLGSRYYYGMDVWGQGTTVTVSS
# VL: DIQMTQSPSSLSASVGDRVTITCRASQSISRYLNWYQQKPGKAPKLLIYGASTLQNGAPSRFSGSGSGTDFTLTISSLQPEDSATYLCQQSYSVPAFGGGTKVEVK
# B10: 3253_P10 (antibody, V domains shown)
# VH: QVQLQESGPGLLKPSDTLALTCTVSGGSITSDYWSWIRQPPGRGLDWIGFFYNGGSTKYNPSLKSRVTISADTSKNQLSLKLTSVTAADTGVYYCARHDAKFSGSYYVASWGQGTRVTVSS
# VL: DIQMTQSPSSLSASVGDRVTISCRASQSISTYLNWYQQQPGKAPKVLISGATDLQSGVPSRFSGSGSGTDFTLTISSLQPEDFATYYCQQSYNTPLIFGQGTKLEIK
# B11: 3260_D19 (antibody, V domains shown)
# VH: DMQLVESGGGLVPPGGSLRLSCAASGFSVSDNYINWVRQAPGKGLDWVSVFYSADRTSYADSVKGRFTVSSHDSKNTVYLQMNSLRAEDTAVYYCARVQKSYYGMDVWGQGTTVTVSS
# VL: GIQMTQSPSSLSASVGDRVTITCRASQSISRYLNWYLQKPGKAPKLLISGASSLQSGVPSRFSGTGSGTEFTLTISSLQPEDFATYYCQQTFSIPLFGQGTKVEIK
# B12: 3362_B11 (antibody, V domains shown)
# VH: QVQLQASGPGLVKPSETLSLTCTVSGDSITSGAYYWTWIRQHPGKGLEWIGYIYYSGNTYYNPSLKSRVTISLDTSKNQFSLKVNSVTAADTAVYYCARAASTSVLGYGMDVWGQGTTVTVSS
# VL: B5 VL with N31R, H38Q, K39E, E42K, N48V, A64G, N93S, I96L
# B13: 3242_P05 (antibody, V domains shown)
# VH: B11 VH
# VL: B11 VL
# B14: 3241_G23 (antibody, V domains shown)
# VH: QVQLQQSGPGLVKPSQTLSLTCTVSGGPVSGGGYSWNWIRQRPGQGLEWVGFMFHSGSPRYNPTLKSRITISVDTSKNLVSLKLSSVTAADTAVYFCARVGQMDKYYAMDVWGQGTTVTVSS
# VL: DIQMTQSPSSLSSSVGDRVTITCRASQSIGAYVNWYQQKAGKAPQVLIFGASNLQSGVPSRFSGSGSGTDFTLTISSLQPEDFATYFCQQTYSTPITFGQGTRLEIK
# B15: 3244_I10 (antibody, V domains shown)
# VH: B10 VH
# VL: B10 VL with S49F, D53N
# B16: 3243_J07 (antibody, V domains shown)
# VH: B10 VH with A100V
# VL: B10 VL with D53N
# B17: 3259_J21 (antibody, V domains shown)
# VH: QVQLQESGPRVVRPSETLSLTCTVSGGSISSYNWIWIRQPPGKGLEWIGHIYDYGRTFYNSSLQSRPTISVDASKNQLSLRLTSVTASDTAVYYCARPLGILHYYAMDLWGQGTTVTVSS
# VL: DIQMTQSPLSVSVSVGDRVTIACRASQSIDKFLNWYQQKPGKAPKLLIYGASNLHSGAPSRFSASGSGTDFTLTITNIQTEDFATYLCQQSFSVPAFGGGTKVEIK
# B18: 3245_O19 (antibody, V domains shown)
# VH: EVQLVESGGGLVQPGGSLRLSCTASGLSVSSTYMNWVRQAPGKGLEWVSVFYSETRTYYADSVKGRFTVSRHNSNNTLYLQMNSLRVEDTAVYYCARVQRLSYGMDVWGQGTTVTVSS
# VL: DIQMTQSPSSLSASVGDRVTITCRASQSISTYLNWYQKRPGKAPKLLVYGASTLQSGVPSRFSGSGSGTDFTLTIASLQPEDSATYYCQQTYSIPLFGQGTRLEIK
# B19: 3244_H04 (antibody, V domains shown)
# VH: B18 VH with V87A
# VL: B18 VL with T53S, T85V
# Legend:
# [1] = target: M2 protein on influenza A/Puerto Rico/8/34 (H1N1) virus particles (influenza A virus A/Puerto Rico/8/34 (H1N1)) (UniProt P06821); experiment: FAb fragments on whole PR8 virus
# [2] = target: M2 protein on influenza A/Puerto Rico/8/34 (H1N1) virus particles (influenza A virus A/Puerto Rico/8/34 (H1N1)) (UniProt P06821); experiment: SPR, Fab on influenza virus (A/Puerto Rico/8/34)
# [3] = target: T1, M2 protein of influenza A/Fort …; experiment: cell staining images, 293-HEK cells stably expressing M2
# [4] = target: T2, M2 protein on influenza A/Puerto Rico/8/34 (H1N1) virus particles (influenza A virus A/Puerto Rico/8/34 …, UniProt P06821 1-97); experiment: FAb fragments on whole PR8 virus
# [5] = target: T2, M2 protein on influenza A/Puerto …; experiment: SPR, Fab on influenza virus (A/Puerto Rico/8/34)
# [6] = tested on: M2 (A/Hong Kong/483/97) expressed on CHO cells; format: binding, influenza A virus
# [7] = tested on: Influenza A (A/Puerto Rico/8/34) virus; format: binding, influenza A virus H1N1
molecule,measurement,setting,value
cH14C2 Fab,Kd,[1],4000 nM
same,koff,[1],0.00286 s⁻¹
same,kon,[1],500 M⁻¹ s⁻¹
same,Kd,[2],4000 nM
same,koff,[2],0.0018 s⁻¹
same,kon,[2],500 M⁻¹ s⁻¹
B1,binding result,[3],binds
B2,Kd,[4],14 nM
same,koff,[4],0.014 s⁻¹
same,kon,[4],1e+06 M⁻¹ s⁻¹
same,Kd,[5],14 nM
same,koff,[5],0.014 s⁻¹
same,kon,[5],1e+06 M⁻¹ s⁻¹
B3,Kd,[4],3 nM
same,koff,[4],0.0023 s⁻¹
same,kon,[4],740000 M⁻¹ s⁻¹
same,Kd,[5],3.2 nM
same,koff,[5],0.0023 s⁻¹
same,kon,[5],740000 M⁻¹ s⁻¹
B4,FACS M2-HK MFI,[6],109
B5,FACS M2-HK MFI,[6],449
B6,FACS M2-HK MFI,[6],442
B7,FACS M2-HK MFI,[6],112
B8,FACS M2-HK MFI,[6],110
same,Virus ELISA OD A450,[7],1.02
B9,FACS M2-HK MFI,[6],967
same,Virus ELISA OD A450,[7],0.56
B10,FACS M2-HK MFI,[6],43
same,Virus ELISA OD A450,[7],0.50
B11,FACS M2-HK MFI,[6],846
same,Virus ELISA OD A450,[7],2.46
B12,FACS M2-HK MFI,[6],218
same,Virus ELISA OD A450,[7],1.83
B13,FACS M2-HK MFI,[6],596
same,Virus ELISA OD A450,[7],0.50
B14,FACS M2-HK MFI,[6],1697
same,Virus ELISA OD A450,[7],3.02
B15,FACS M2-HK MFI,[6],434
same,Virus ELISA OD A450,[7],3.01
B16,FACS M2-HK MFI,[6],131
same,Virus ELISA OD A450,[7],2.94
B17,FACS M2-HK MFI,[6],1673
same,Virus ELISA OD A450,[7],2.40
B18,FACS M2-HK MFI,[6],919
same,Virus ELISA OD A450,[7],3.51
B19,FACS M2-HK MFI,[6],963
same,Virus ELISA OD A450,[7],3.31
